Measurements published in patent publication US9969998B2, “Compositions of adenosine deaminase-2 (ADA2), variants thereof and methods of using same” (Halozyme, Inc., priority 2014, dated 2018).
Positions count from the first letter of the chain named. In names and notes the source's numbering stands.

B1: R222Q/S265N/R23E: ADA2 combination variant SEQ ID NO:270 (protein)
chain: IDETRAHLLLKEKMMRLGGELVLNTKEELANERLMTLKIAEMKEAMRTLIFPPSMHFFQAKHLIERSQVFNILRMMPKGAALHLHDIGIVTMDWLVRNVTYRPHCHICFTPRGIMQFRFAHPTPRPSEKCSKWILLEDYRKRVQNVTEFDDSLLRNFTLVTQHPEVIYTNQNVVWSKFETIFFTISGLIHYAPVFRDYVFRSMQEFYEDNVLYMEIRAQLLPVYELSGEHHDEEWSVKTYQEVAQKFVETHPEFIGIKIIYNDHRSKDVAVIAESIRMAMGLRIKFPTVVAGFDLVGHEDTGHSLHDYKEALMIPAKDGVKLPYFFHAGETDWQGTSIDRNILDALMLNTTRIGHGFALSKHPAVRTYSWKKDIPIEVCPISNQVLKLVSDLRNHPVATLMATGHPMVISSDDPAMFGAKGLSYDFYEVFMGIGGMKADLRTLKQLAMNSIKYSTLLESEKNTFMEIWKKRWDKFIADVATK
modifications: human ADA2 R219Q/S262N/R20E, mature numbering
B2: R222Q/S265N/K374D/R23E: ADA2 combination variant SEQ ID NO:272 (protein)
chain: B1 chain with K371D
modifications: human ADA2 R219Q/S262N/K371D/R20E, mature numbering
B3: R222Q/S265N/K374E/R23E: ADA2 combination variant SEQ ID NO:271 (protein)
chain: B1 chain with K371E
modifications: human ADA2 R219Q/S262N/K371E/R20E, mature numbering
B4: K374D/C108-T150del→(GGGGS)2 (protein)
chain: IDETRAHLLLKEKMMRLGGRLVLNTKEELANERLMTLKIAEMKEAMRTLIFPPSMHFFQAKHLIERSQVFNILRMMPKGAALHLHDIGIVTMDWLVRNVTYRPHGGGGSGGGGSEFDDSLLRNFTLVTQHPEVIYTNQNVVWSKFETIFFTISGLIHYAPVFRDYVFRSMQEFYEDNVLYMEIRARLLPVYELSGEHHDEEWSVKTYQEVAQKFVETHPEFIGIKIIYSDHRSKDVAVIAESIRMAMGLRIKFPTVVAGFDLVGHEDTGHSLHDYKEALMIPAKDGVKLPYFFHAGETDWQGTSIDRNILDALMLNTTRIGHGFALSKHPAVRTYSWDKDIPIEVCPISNQVLKLVSDLRNHPVATLMATGHPMVISSDDPAMFGAKGLSYDFYEVFMGIGGMKADLRTLKQLAMNSIKYSTLLESEKNTFMEIWKKRWDKFIADVATK
modifications: C108-T150 replaced by (GGGGS)2; human ADA2 K371D/C105-T147del->(GGGGS)2, mature numbering
B5: K374D/V102-Q147del→(GGGGS)1 (protein)
chain: IDETRAHLLLKEKMMRLGGRLVLNTKEELANERLMTLKIAEMKEAMRTLIFPPSMHFFQAKHLIERSQVFNILRMMPKGAALHLHDIGIVTMDWLVRNGGGGSNVTEFDDSLLRNFTLVTQHPEVIYTNQNVVWSKFETIFFTISGLIHYAPVFRDYVFRSMQEFYEDNVLYMEIRARLLPVYELSGEHHDEEWSVKTYQEVAQKFVETHPEFIGIKIIYSDHRSKDVAVIAESIRMAMGLRIKFPTVVAGFDLVGHEDTGHSLHDYKEALMIPAKDGVKLPYFFHAGETDWQGTSIDRNILDALMLNTTRIGHGFALSKHPAVRTYSWDKDIPIEVCPISNQVLKLVSDLRNHPVATLMATGHPMVISSDDPAMFGAKGLSYDFYEVFMGIGGMKADLRTLKQLAMNSIKYSTLLESEKNTFMEIWKKRWDKFIADVATK
modifications: V102-Q147 replaced by (GGGGS)1; human ADA2 K371D/V99-Q144del->(GGGGS)1, mature numbering
B6: K374D/C108-T150del→(GGGGS)3 (protein)
chain: IDETRAHLLLKEKMMRLGGRLVLNTKEELANERLMTLKIAEMKEAMRTLIFPPSMHFFQAKHLIERSQVFNILRMMPKGAALHLHDIGIVTMDWLVRNVTYRPHGGGGSGGGGSGGGGSEFDDSLLRNFTLVTQHPEVIYTNQNVVWSKFETIFFTISGLIHYAPVFRDYVFRSMQEFYEDNVLYMEIRARLLPVYELSGEHHDEEWSVKTYQEVAQKFVETHPEFIGIKIIYSDHRSKDVAVIAESIRMAMGLRIKFPTVVAGFDLVGHEDTGHSLHDYKEALMIPAKDGVKLPYFFHAGETDWQGTSIDRNILDALMLNTTRIGHGFALSKHPAVRTYSWDKDIPIEVCPISNQVLKLVSDLRNHPVATLMATGHPMVISSDDPAMFGAKGLSYDFYEVFMGIGGMKADLRTLKQLAMNSIKYSTLLESEKNTFMEIWKKRWDKFIADVATK
modifications: C108-T150 replaced by (GGGGS)3; human ADA2 K371D/C105-T147del->(GGGGS)3, mature numbering
B7: K374D/V102-Q147del→(GGGGS)3 (protein)
chain: IDETRAHLLLKEKMMRLGGRLVLNTKEELANERLMTLKIAEMKEAMRTLIFPPSMHFFQAKHLIERSQVFNILRMMPKGAALHLHDIGIVTMDWLVRNGGGGSGGGGSGGGGSNVTEFDDSLLRNFTLVTQHPEVIYTNQNVVWSKFETIFFTISGLIHYAPVFRDYVFRSMQEFYEDNVLYMEIRARLLPVYELSGEHHDEEWSVKTYQEVAQKFVETHPEFIGIKIIYSDHRSKDVAVIAESIRMAMGLRIKFPTVVAGFDLVGHEDTGHSLHDYKEALMIPAKDGVKLPYFFHAGETDWQGTSIDRNILDALMLNTTRIGHGFALSKHPAVRTYSWDKDIPIEVCPISNQVLKLVSDLRNHPVATLMATGHPMVISSDDPAMFGAKGLSYDFYEVFMGIGGMKADLRTLKQLAMNSIKYSTLLESEKNTFMEIWKKRWDKFIADVATK
modifications: (GGGGS)3 linker replaces deleted region; human ADA2 K371D/V99-Q144del->(GGGGS)3, mature numbering
B8: K374D/V102-Q147del→(GGGGS)2 (protein)
chain: IDETRAHLLLKEKMMRLGGRLVLNTKEELANERLMTLKIAEMKEAMRTLIFPPSMHFFQAKHLIERSQVFNILRMMPKGAALHLHDIGIVTMDWLVRNGGGGSGGGGSNVTEFDDSLLRNFTLVTQHPEVIYTNQNVVWSKFETIFFTISGLIHYAPVFRDYVFRSMQEFYEDNVLYMEIRARLLPVYELSGEHHDEEWSVKTYQEVAQKFVETHPEFIGIKIIYSDHRSKDVAVIAESIRMAMGLRIKFPTVVAGFDLVGHEDTGHSLHDYKEALMIPAKDGVKLPYFFHAGETDWQGTSIDRNILDALMLNTTRIGHGFALSKHPAVRTYSWDKDIPIEVCPISNQVLKLVSDLRNHPVATLMATGHPMVISSDDPAMFGAKGLSYDFYEVFMGIGGMKADLRTLKQLAMNSIKYSTLLESEKNTFMEIWKKRWDKFIADVATK
modifications: V102-Q147 replaced by (GGGGS)2; human ADA2 K371D/V99-Q144del->(GGGGS)2, mature numbering
B9: K374D/C108-T150del→(GGGGS)1 (protein)
chain: IDETRAHLLLKEKMMRLGGRLVLNTKEELANERLMTLKIAEMKEAMRTLIFPPSMHFFQAKHLIERSQVFNILRMMPKGAALHLHDIGIVTMDWLVRNVTYRPHGGGGSEFDDSLLRNFTLVTQHPEVIYTNQNVVWSKFETIFFTISGLIHYAPVFRDYVFRSMQEFYEDNVLYMEIRARLLPVYELSGEHHDEEWSVKTYQEVAQKFVETHPEFIGIKIIYSDHRSKDVAVIAESIRMAMGLRIKFPTVVAGFDLVGHEDTGHSLHDYKEALMIPAKDGVKLPYFFHAGETDWQGTSIDRNILDALMLNTTRIGHGFALSKHPAVRTYSWDKDIPIEVCPISNQVLKLVSDLRNHPVATLMATGHPMVISSDDPAMFGAKGLSYDFYEVFMGIGGMKADLRTLKQLAMNSIKYSTLLESEKNTFMEIWKKRWDKFIADVATK
modifications: C108-T150 replaced by GGGGS linker; human ADA2 K371D/C105-T147del->(GGGGS)1, mature numbering

assay: Kinetic assessment of adenosine deaminase activity (ammonia assay, Michaelis-Menten); type: biochemical; details: pH 6.5; [E] = 8.5 nM
Method: Adenosine deaminase activity was determined by the measurement of ammonia released from adenosine when broken down to inosine. Ammonia was measured using a commercially available Ammonia Assay kit (Cat. No. AA0100, Sigma-Aldrich, St. Louis, Mo.). The kit contains dry reagents containing α-ketoglutaric acid and NADPH, which were reconstituted with 5 mL water prior to use in the assay. Ammonia reacts with α-ketogluaric acid (KGA) and reduced nicotinamide adenine dinucleotide phosphate (NADPH) in the presence of L-glutamate dehydrogenase (GDH).
Kinetics parameters of rHuADA2 WT and variants were compared using this assay at different adenosine concentrations at pH 7.6 and 6.5. Adenosine concentrations ranging from 20 μM to 20 mM were used. Sub-molar concentration of adenosine stock was prepared in 1N NaOH.
For the enzymatic assays at pH 7.6, adenosine was serially diluted with 100 mM sodium acetate (NaOAc), pH 4.9. A 2× reaction mixture was prepared, containing reconstituted ammonia assay reagent (containing about 4 mM α-ketoglutarate and about 300 μM NADPH), WT rHuADA2 or variants at 1 μg/mL (17 nM) and glutamate dehydrogenase (GDH, 1:50 dilution). 85 μL of adenosine was added to 85 μL 2× mixture in duplicate in a UV-transparent half-area plate. The change in absorbance (ΔA) at 340 nm over time at room temperature was monitored.
For the enzymatic assay at pH 6.5, adenosine was serially diluted with 200 mM piperazine-N,N′-bis(2-ethanesulfonic acid) (PIPES), pH 6.5. A 2× reaction mixture in 200 mM PIPES, pH 6.5 was prepared, containing 4 mM α-ketoglutarate, 300 μM NADPH, 1 μg/mL (17 nM) rHuADA2 or variants and 50 U/mL GDH (Cat No. G2626, Sigma-Aldrich). The enzymatic reaction was initiated by adding equal volume of adenosine to the 2× mixture in a UV-transparent half-area plate as described above, and the change in absorbance (AA) at 340 nm over time at room temperature was monitored.
Adenosine deaminase activity in mU/mL (μM/min equivalent) was calculated using the following formula: 1 mU/mL=−(−ΔA/min×Tv)/(Sv×ϵ×1) • where Tv=total volume (170 μL), Sv=sample volume (85 μL), ϵ=6.22×10^−3 μM^−1 cm^−1, 1=1 cm.
The activity data were fitted with non-linear regression of Michaelis-Menten equation using Graphpad Prism software to obtain Km and Vmax. Other kinetics parameters such as kcat and kcat/Km were also determined.

Row | Molecule | Km | Vmax
1 | B1 | 1010 µM | 40.59 µM/min
2 | B2 | 810 µM | 45.78 µM/min
3 | B3 | 770 µM | 54.82 µM/min

same assay, conditions: pH 6.5; [E] = 8.5 nM; kcat=Vmax/0.0085/60

Row | Molecule | kcat
4 | B1 | 79.59 s⁻¹
5 | B2 | 89.76 s⁻¹
6 | B3 | 107.49 s⁻¹

same assay, conditions: pH 7.6; [E] = 8.5 nM

Row | Molecule | Km | Vmax | kcat
7 | B4 | 850 µM | 36.92 µM/min | 72.39 s⁻¹
8 | B5 | 890 µM | 43.46 µM/min | 85.22 s⁻¹
9 | B6 | 770 µM | 38.12 µM/min | 74.75 s⁻¹
10 | B1 | 1290 µM | 67.24 µM/min | –
11 | B2 | 1230 µM | 72.58 µM/min | –
12 | B3 | 1240 µM | 90.91 µM/min | –
13 | B7 | 820 µM | 43.01 µM/min | 84.33 s⁻¹
14 | B8 | 870 µM | 44.52 µM/min | 87.29 s⁻¹
15 | B9 | 910 µM | 43.1 µM/min | 84.51 s⁻¹

same assay, conditions: pH 7.6; [E] = 8.5 nM; kcat=Vmax/0.0085/60

Row | Molecule | kcat
16 | B1 | 131.84 s⁻¹
17 | B2 | 142.31 s⁻¹
18 | B3 | 178.25 s⁻¹
